Assay results reported in patent US20240058465A1 (SUTRO BIOPHARMA, published 2024).
Changes are numbered by the printed parent chain.

B1: SRP1987-C05 parent (antibody, IgG1, V domains shown)
VH: EVQLVESGGGLVQPGGSLRLSCAASGFNISDYDIHWVRQAPGKGLEWVGGIDPDDGSTDYADSVKGRFTISADTSKNTAYLQMNSLRAEDTAVYYCARDYGVFDYWGQGTLVTVSS
VL: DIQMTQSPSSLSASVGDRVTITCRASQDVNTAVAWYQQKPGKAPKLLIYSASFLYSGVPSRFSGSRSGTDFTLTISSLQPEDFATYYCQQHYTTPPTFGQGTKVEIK
notes: IgG1 with trastuzumab LC; HIS- and FLAG-tagged; cell-free expressed
B2: SRP2188-A05 (antibody, IgG1, V domains shown)
VH: B1 VH with S30K, D31R, G50W, D52N, S57D, D59Y
VL: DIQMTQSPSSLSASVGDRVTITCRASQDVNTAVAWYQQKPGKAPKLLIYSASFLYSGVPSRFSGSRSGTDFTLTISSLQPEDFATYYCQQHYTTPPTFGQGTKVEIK
notes: as for B1
B3: SRP2188-B01 (antibody, IgG1, V domains shown)
VH: B1 VH with S30N, D31S, Y32H, G50W, D52N, S57D, D59Y, F103L
VL: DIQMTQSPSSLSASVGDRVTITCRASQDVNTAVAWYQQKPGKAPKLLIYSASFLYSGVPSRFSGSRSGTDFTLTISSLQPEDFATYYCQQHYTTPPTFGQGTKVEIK
notes: as for B1
B4: SRP2188-F04 (antibody, IgG1, V domains shown)
VH: B1 VH with G10S, Y32F, G49S, S57A
VL: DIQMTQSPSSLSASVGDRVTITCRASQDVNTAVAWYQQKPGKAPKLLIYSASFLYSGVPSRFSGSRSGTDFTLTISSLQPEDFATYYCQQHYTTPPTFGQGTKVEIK
notes: as for B1
B5: SRP2188-A02 (antibody, IgG1, V domains shown)
VH: B1 VH with S30K, D31S, G50W, D52N, D54E, S57D, D59Y, Y100F
VL: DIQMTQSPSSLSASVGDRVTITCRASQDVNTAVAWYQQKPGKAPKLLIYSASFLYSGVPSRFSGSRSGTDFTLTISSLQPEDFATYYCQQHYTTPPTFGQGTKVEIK
notes: as for B1
B6: SRP2188-G01 (antibody, IgG1, V domains shown)
VH: B1 VH with D54N, S57A
VL: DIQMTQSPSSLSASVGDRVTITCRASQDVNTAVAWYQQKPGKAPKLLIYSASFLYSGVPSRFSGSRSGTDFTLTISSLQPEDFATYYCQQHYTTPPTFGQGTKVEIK
notes: as for B1
B7: SRP2188-B03 (antibody, IgG1, V domains shown)
VH: B1 VH with D31S, G50A, D54G, S57A, F103Y
VL: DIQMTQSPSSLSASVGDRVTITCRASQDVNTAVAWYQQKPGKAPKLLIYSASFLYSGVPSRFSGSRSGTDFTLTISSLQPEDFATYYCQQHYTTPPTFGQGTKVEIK
notes: as for B1
B8: SRP2188-E02 (antibody, IgG1, V domains shown)
VH: B1 VH with S30P, D33E, D52E, D54H, F103Y
VL: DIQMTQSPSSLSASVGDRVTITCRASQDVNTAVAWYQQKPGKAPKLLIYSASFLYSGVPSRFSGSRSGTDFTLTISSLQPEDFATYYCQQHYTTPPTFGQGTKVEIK
notes: as for B1
B9: SRP2188-A08 (antibody, IgG1, V domains shown)
VH: B1 VH with S30H, D31N, Y32F, G50W, D52N, D54F, S57D, D59Y, Q82R, V93A
VL: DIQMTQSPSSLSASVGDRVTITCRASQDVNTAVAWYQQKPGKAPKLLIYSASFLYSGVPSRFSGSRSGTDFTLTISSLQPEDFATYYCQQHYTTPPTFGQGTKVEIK
notes: as for B1
B10: SRP2188-C07 (antibody, IgG1, V domains shown)
VH: B1 VH with S30V, D31R, G50W, D52N, S57D, D59Y
VL: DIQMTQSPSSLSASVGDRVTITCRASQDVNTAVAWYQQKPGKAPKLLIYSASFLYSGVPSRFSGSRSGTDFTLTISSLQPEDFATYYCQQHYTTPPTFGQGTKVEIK
notes: as for B1
B11: SRP2188-D10 (antibody, IgG1, V domains shown)
VH: B1 VH with G50R, D54R, S57A
VL: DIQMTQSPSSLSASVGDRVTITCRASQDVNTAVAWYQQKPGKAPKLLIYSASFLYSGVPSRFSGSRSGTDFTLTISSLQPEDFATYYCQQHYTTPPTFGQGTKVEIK
notes: as for B1
B12: SRP2188-D01 (antibody, IgG1, V domains shown)
VH: B1 VH with S30K, D31S, G50W, D52N, D54Y, S57D, D59Y
VL: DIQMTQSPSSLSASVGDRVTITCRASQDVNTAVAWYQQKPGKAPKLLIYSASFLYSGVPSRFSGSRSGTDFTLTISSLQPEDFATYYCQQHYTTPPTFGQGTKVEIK
notes: as for B1
B13: SRP2188-C02 (antibody, IgG1, V domains shown)
VH: B1 VH with S30E, D31R, G50W, D52N, S57D, D59Y, M83T, N84K
VL: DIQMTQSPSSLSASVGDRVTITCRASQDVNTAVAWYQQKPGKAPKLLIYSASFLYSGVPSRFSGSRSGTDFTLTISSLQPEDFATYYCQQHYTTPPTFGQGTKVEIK
notes: as for B1
B14: SRP2188-B04 (antibody, IgG1, V domains shown)
VH: B1 VH with S30T, D31W, G50W, D52N, S57D, D59Y
VL: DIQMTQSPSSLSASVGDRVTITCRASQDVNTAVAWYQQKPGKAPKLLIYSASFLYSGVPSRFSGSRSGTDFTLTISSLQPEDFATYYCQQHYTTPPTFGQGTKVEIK
notes: as for B1
B15: SRP2188-F03 (antibody, IgG1, V domains shown)
VH: B1 VH with G49S
VL: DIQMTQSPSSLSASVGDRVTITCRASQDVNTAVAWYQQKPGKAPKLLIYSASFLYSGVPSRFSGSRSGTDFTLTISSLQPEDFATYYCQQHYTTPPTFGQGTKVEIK
notes: as for B1
B16: SRP2188-D07 (antibody, IgG1, V domains shown)
VH: B1 VH with Y32F, G49V, D54T, S57A
VL: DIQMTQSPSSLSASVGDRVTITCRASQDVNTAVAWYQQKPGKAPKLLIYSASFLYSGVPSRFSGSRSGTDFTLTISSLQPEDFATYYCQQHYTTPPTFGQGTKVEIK
notes: as for B1
B17: SRP2188-A07 (antibody, IgG1, V domains shown)
VH: B1 VH with S30H, D31H, G50W, D52N, S57D, D59Y
VL: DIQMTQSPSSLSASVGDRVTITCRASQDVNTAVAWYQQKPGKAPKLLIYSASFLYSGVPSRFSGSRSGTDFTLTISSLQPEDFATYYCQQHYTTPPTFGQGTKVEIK
notes: as for B1
B18: SRP2188-A09 (antibody, IgG1, V domains shown)
VH: B1 VH with S30I, D31N, G50W, D52N, S57D, D59Y
VL: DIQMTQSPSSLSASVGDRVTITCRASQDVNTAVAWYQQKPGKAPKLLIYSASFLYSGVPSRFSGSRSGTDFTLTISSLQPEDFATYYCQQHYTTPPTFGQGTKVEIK
notes: as for B1
B19: SRP2188-D02 (antibody, IgG1, V domains shown)
VH: B1 VH with D54E, S57A
VL: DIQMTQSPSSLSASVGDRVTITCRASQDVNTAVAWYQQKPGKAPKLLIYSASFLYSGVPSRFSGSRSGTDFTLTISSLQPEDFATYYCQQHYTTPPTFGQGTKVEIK
notes: as for B1
B20: SRP2188-B08 (antibody, IgG1, V domains shown)
VH: B1 VH with S30D, D31S, G50W, D52N, S57D, D59F, N84D
VL: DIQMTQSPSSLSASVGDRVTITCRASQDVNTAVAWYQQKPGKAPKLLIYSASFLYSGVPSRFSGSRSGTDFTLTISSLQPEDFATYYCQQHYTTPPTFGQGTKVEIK
notes: as for B1
B21: SRP2188-F09 (antibody, IgG1, V domains shown)
VH: B1 VH with G10D, S30R, G49S, G50A, D54N
VL: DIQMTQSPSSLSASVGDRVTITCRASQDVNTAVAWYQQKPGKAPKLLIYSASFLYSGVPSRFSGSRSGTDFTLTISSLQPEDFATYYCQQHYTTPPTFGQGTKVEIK
notes: as for B1
B22: SRP2188-A03 (antibody, IgG1, V domains shown)
VH: B1 VH with S30R, G50W, D52N, S57D, D59Y
VL: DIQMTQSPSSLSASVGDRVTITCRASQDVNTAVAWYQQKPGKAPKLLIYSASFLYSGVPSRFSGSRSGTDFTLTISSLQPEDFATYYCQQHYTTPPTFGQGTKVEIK
notes: as for B1
B23: SRP2188-C03 (antibody, IgG1, V domains shown)
VH: B1 VH with S30N, D31S, G50W, D52N, S57D, D59Y
VL: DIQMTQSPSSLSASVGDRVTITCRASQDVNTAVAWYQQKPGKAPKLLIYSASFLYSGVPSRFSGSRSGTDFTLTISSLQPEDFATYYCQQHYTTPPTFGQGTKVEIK
notes: as for B1
B24: SRP2188-B07 (antibody, IgG1, V domains shown)
VH: B1 VH with S30H, D31S, Y32H, G50W, D52N, S57D, D59Y, T69A, Q108R
VL: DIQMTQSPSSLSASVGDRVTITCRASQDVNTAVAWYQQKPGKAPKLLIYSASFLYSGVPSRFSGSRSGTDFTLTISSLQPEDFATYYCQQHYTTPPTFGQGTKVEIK
notes: as for B1
B25: SRP2188-B05 (antibody, IgG1, V domains shown)
VH: B1 VH with S30P, G50V, S57W, D59H
VL: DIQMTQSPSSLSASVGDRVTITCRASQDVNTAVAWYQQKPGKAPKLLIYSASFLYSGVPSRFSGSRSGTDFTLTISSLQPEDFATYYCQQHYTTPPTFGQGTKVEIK
notes: as for B1
B26: SRP2188-E10 (antibody, IgG1, V domains shown)
VH: B1 VH with S30G, Y32F, D54R, S57A
VL: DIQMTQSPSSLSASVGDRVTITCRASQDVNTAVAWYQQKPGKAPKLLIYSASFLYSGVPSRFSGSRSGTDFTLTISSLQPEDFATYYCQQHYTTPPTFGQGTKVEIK
notes: as for B1
B27: SRP2188-G04 (antibody, IgG1, V domains shown)
VH: B1 VH with S30F, D54R, Y60H, F103Y
VL: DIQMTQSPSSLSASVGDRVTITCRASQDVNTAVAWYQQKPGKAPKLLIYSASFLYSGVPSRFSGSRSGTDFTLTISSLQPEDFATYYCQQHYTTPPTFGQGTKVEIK
notes: as for B1
B28: SRP2188-F05 (antibody, IgG1, V domains shown)
VH: B1 VH with D54R, S57A, Y60S
VL: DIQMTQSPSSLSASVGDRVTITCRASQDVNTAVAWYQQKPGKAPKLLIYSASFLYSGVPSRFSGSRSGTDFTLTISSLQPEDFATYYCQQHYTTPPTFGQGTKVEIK
notes: as for B1
B29: SRP2188-F10 (antibody, IgG1, V domains shown)
VH: B1 VH with D31V, Y32F, D54N, S57A, Y60H
VL: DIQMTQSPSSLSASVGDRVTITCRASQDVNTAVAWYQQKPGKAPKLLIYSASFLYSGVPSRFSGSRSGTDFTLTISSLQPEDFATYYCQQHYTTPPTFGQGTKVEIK
notes: as for B1

These binders were tested against T1, human ROR1 (hROR1) expressed on cells (human, UniProt Q01973 30-937) (assay: cell-based or functional assay).

| Binder | Mino Nb-PBD, drug-conjugated 2° antibody Cell Killing IC50 [pM] | Mino Nb-PBD, drug-conjugated 2° antibody Cell Killing Span [%] |
| --- | --- | --- |
| B1 | 0.77 | 68 |
| B2 | 1 | 71 |
| B3 | 0.69 | 75 |
| B4 | 0.72 | 71 |
| B5 | 0.7 | 65 |
| B6 | 1.5 | 61 |
| B7 | 1.7 | 71 |
| B8 | 0.75 | 76 |
| B9 | 20 | 75 |
| B10 | 0.85 | 71 |
| B11 | 1 | 65 |
| B12 | 1.1 | 72 |
| B13 | 10 | 73 |
| B14 | 1.2 | 73 |
| B15 | 1.1 | 71 |
| B16 | 1.7 | 70 |
| B17 | 0.48 | 75 |
| B18 | 0.88 | 71 |
| B19 | 1.4 | 72 |
| B20 | 6.2 | 71 |
| B21 | 1.8 | 59 |
| B22 | 1 | 71 |
| B23 | 1.1 | 71 |
| B24 | 1.4 | 72 |
| B25 | 1.1 | 70 |
| B26 | 0.99 | 73 |

Each binder was assayed against T1, human ROR1 (hROR1) expressed on cells (assay: flow cytometry, HCT116-hROR1 cells).

| Bmax (MFI) | Kd [nM] | Binder |
| --- | --- | --- |
| 9500 | 0.04 | B1 |
| 9030 | 0.04 | B2 |
| 9470 | 0.04 | B3 |
| 10000 | 0.03 | B4 |
| 9390 | 0.03 | B5 |
| 9750 | 0.05 | B6 |
| 9560 | 0.04 | B7 |
| 10500 | 0.07 | B8 |
| 8130 | 0.18 | B9 |
| 9160 | 0.04 | B10 |
| 8990 | 0.02 | B27 |
| 9070 | 0.05 | B11 |
| 8940 | 0.04 | B12 |
| 9920 | 0.13 | B13 |
| 9660 | 0.05 | B14 |
| 9620 | 0.04 | B28 |
| 10100 | 0.04 | B15 |
| 8990 | 0.04 | B16 |
| 9330 | 0.07 | B17 |
| 9380 | 0.03 | B18 |
| 10000 | 0.04 | B19 |
| 9210 | 0.09 | B20 |
| 8760 | 0.02 | B21 |
| 9700 | 0.03 | B22 |
| 9600 | 0.03 | B23 |
| 8760 | 0.07 | B24 |
| 8480 | 0.03 | B29 |
| 8510 | 0.03 | B25 |
| 9120 | 0.04 | B26 |

The binders below were run against T2, human ROR1-ECD (human, UniProt Q01973 30-406) (assay: SPR (Biacore), antibody captured by anti-Fc, human ROR1-ECD analyte).
T2 construct: Bought protein; also called hROR1; ROR1-extracellular domain
Protocol: Anti-Fc polyclonal antibodies were immobilized onto a CMS chip (GE Life Sciences) using amine coupling chemistry (from Amine Coupling Kit, GE Life Sciences). The immobilization steps were carried out at a flow rate of 25 μL/min in 1×HBS-EP+buffer (GE Life Sciences; 10× Stock diluted before use). The sensor surfaces were activated for 7 min with a mixture of NHS (0.05 M) and EDC (0.2 M). The Anti-Fc antibodies were injected over all 4 flow cells at a concentration of 25 ug/ml in 10 mM sodium acetate, pH 4.5, for 7 min. Ethanolamine (1 M, pH 8.5) was injected for 7 min to block any remaining activated groups.
Off-rate and kinetic binding experiments were performed at 25° C. using 1×HBS-EP+buffer. Test and control antibodies were injected over the anti-Fc surface at concentrations of 5-10 μg/mL for 12 seconds at a flow rate of 10 μL/min on flow cells 2, 3 and 4, followed by a buffer wash for 30 seconds at the same flow rate. […] After capturing ligand (antibody) on the anti-Fc surface, the analyte (hROR1, Fz or Kr domains, Acro Biosystems, Delaware) was bound for 180 seconds, followed by a 600 second dissociation phase at a flow rate of 50 μL/min. Between each ligand capture and analyte binding cycle, regeneration was carried out using 2 injections of 10 mM Glycine pH 2.0 for 30 seconds at 30 μL/min, followed by a 30 second buffer wash step.

| Kd [nM] | koff [s⁻¹] | kon [M⁻¹ s⁻¹] | Binder |
| --- | --- | --- | --- |
| 0.694 | 0.000681 | 981000 | B1 |
| 0.227 | 0.000243 | 1.07e+06 | B2 |
| 0.346 | 0.000334 | 965000 | B7 |
| 0.406 | 0.000259 | 639000 | B27 |
| 0.587 | 0.00051 | 870000 | B28 |
| 0.609 | 0.000406 | 666000 | B17 |
| 0.424 | 0.000401 | 944000 | B18 |
| 0.508 | 0.000389 | 766000 | B22 |
| 0.221 | 0.000194 | 880000 | B24 |
| 0.399 | 0.000399 | 1e+06 | B29 |
| 0.757 | 0.000671 | 887000 | B25 |
